Experimental findings from the DeepSol protein solubility set are described below.

This data set in a line: soluble on expression in E. coli; label from the status in PepcDB or PDB records.
For “MAHHHHHHMSSDDECPELISARVPVTVLTGFLGSGKTTLLHYILSADHDMRIAVIVNEFEFGKTIEKGLTLKSSEKPDDEWLELNNGCMCCTAQTQTVKALESLMEHRGTFDLILVETSGLADPGPIAAMFWQDLPLCGHLYLSGIVTLVDAVNICRYLDDEDVMREAERQILMADKVVLNKCDIATEAQQKAALAAVREINPVATVIPSDHSRVPNLRDILFIDTTRAATELVHLHEHHHSSISAVSLEFFEAERAFAVSSYRDVHAIGSDLLYRCGDYGFEVVRCKAAIWCCEDGQYRLLQLQSIGDLFDVTPMVGQSVPFGCTRALVLGKQLDEVKLRDIFAKYLKATK”, the “soluble on expression in E. coli” value is “not soluble”.

“MGSDKIHHHHHHMNFCRILLKPLKKNEALSGYSAEGLHYLTDNKHFNPELPFSRQEFITVKPQKQQGMSISGFQPKLQLIIKDEHFDSVNQQGNYILKPSPEEYPFLAENEHATMRIMKELGFDVPENGLVSFAGEQNHKEFAFVITRFDRDKQQKPMHQEQLDGAMNIRDKYGKIGADNEQYVSYEQIAKFILQHTENHLAQQREIFRRIIYAYLLGNNDLHLRNFSFIYPKNSHPKLAPIYDFVSVSPYPEIFNSTLLALPLLAREEGNATLAKGFNTQYGEYIGDDFVEFGENIGLNKNVIIQKLIPEIIQEKEKVEQIYSQSFMPQPHIDCVLKTYRKRLALLNLLNEPEL”: the “soluble on expression in E. coli” value is given as “not soluble”. For “MDDQGGTRPDLLSLKPTAVPRLPLVLLARSRLVAKLDDTADTVLICAPAGYGKTLLLSQWLEDQAHKVAWLSPNQHNREALWPAMLQALRRSPAIPPGALRQFSGDEEDAVEVLGDLAQELASTGTSVRLVIDGVDGFSSDERERWIPALLNQSGPPIQLALVARDSTAVDAGPARLSGRIVELRSSDLAFSLEEINVLAAKTTTL” the value was “not soluble”; for “MALLWQLARNAEGDDPTNLESALIGKPVPKFRLESLDNPGQFYQADVLTQGKPVLLNVWATWCPTCRAEHQYLNQLSAQGIRVVGMNYKDDRQKAISWLKELGNPYALSLFDGDGMLGLDLGVYGAPETFLIDGNGIIRYRHAGDLNPRVWEEEIKPLWEKYSKEAAQ”, “soluble”. For “MKNSVDRELPAELMTKLNYQGFESTEIGHPEIQRVAPKVHVSTGDNKVVDSVADVVKATVKDGMTISFHHHFRNGDFVFNQVMRAIIDAGIKDLTLAPSSLTGVMNDMVIEAIKAGTITNITSSGMRGSLGDFVSHGGLKNPVIFRSHGNRARAIEHGDIKIDVAFLGVPNADRLGNANGMAGKAVFGSLGYALMDAQYANQVVLLTDNIVAYPNTPASIKQTQVDYVVQVDQVGDPDKIGSGATRFTKDPKELKIAQTVNNVIVNSPYFKNGFSFQTGSGGAALAVTRYLRQAMLDNQIKASFALGGITKPTTDLLEEGLVDKVMDVQDFDKGAAASMHANPNQQEIDASWYADPDNKGAMVDQLDVAILSALEIDTHFNVNVMSGSDGVIRGAIGGHQDAATAKLTIISAPLVRGRLATIVPEVTTVVTPGDSIDVVVTEYGIAINPRRQDLVKALSHVPGVPVYMIEELQQLAEKKVGQPQPLEFTDRTVALIEYRDGTIIDTIKAVKDLEHHHHHH” the value was “not soluble”.

With “MESEFLYDLLQLPKEVAQPTEEELPRGGKKKYLSPNSKRNPKFEELQKVLMEWINTTLLPEHIVVRSLEEDMFDGLILHHLFQKLASLKLEVEEISLTSASQRHKLGVILEAVNQNLQVEEKQAKWSVETIFNKDLLATLHLLVALAKRFQPDLPLPDNVQVEVIHIESTKTGLKSDKQVEQLTECKSHKDQPLQDAFDELFKLAPEKVHAVQEAIVSFVNQKLERLGLSVQSLDTQFADGVILLLLIGQLEGFFLHLTEFYLTPSSPTEMLHNVTLALDLLKDEGLFSYPVNPEDIVNKDAKSTLRILYSLFQKHSLRAEGGGAHHATPN”, the “soluble on expression in E. coli” value is given as “soluble”. The same measure for “MKRVGKQTWVFDEDIYIRAAATAVGPLEADGPLGGYFDIWHRDLYCGEETWELAERRLMSEAVARCLQKAGVSAHDVDLFLAGDLLNQNATSNYVARELPIPFLCLFGACSTSMQTLAAAAAFVAGGLADTALVATSSHNATAERQFRYPTELGVQKPKTATFTVTGAGAALVGRTPGRWRIRAATIGKVIDAGLTNPLDMGAAMAPAAADTIEQHFRDLGTSPSDYDLIVTGDLSRVGSVIVRELLAESGYDISDVYNDCGLMIYRPDQKVFAGGSGCACSAVVTYGYLFHELDRGTFHRLFVVATGALLSQTMVQQKQSIPAVAHGVVIEAAKLEHHHHHH”: “not soluble”; for “MSLLLIKNGKIITMTGKNYDKGCVLIDNGKIVDVNENIKENKYMKVIDASNFTVIPGIIDAHCHIGIDEQDIGKVGLDINEVSNPVTPNLRAIDAINPMDSAFNDAVMGGITGVMTGPGSANVIGGQFVFMKTYGKCIDDMVVLEPAAVKAALGENPKRVYGGKGKAPVTRMAIAALLREALTEAENYKNKKEALKAKGERIEKNLKLEALIPVIEGNIPLKVHAHRADDILTAIRIAKEFKINITLDHCTEGHLIPEKVKESGYPVLVGPSLTSRSKSEVSNKTFKTPGVLANMGIKTAIITDHPVIPIQYLPICAGLSCREGMKVEDALYAITLNAAEICGVASRLGSIEKGKDADIAIFDGNPMEVFTKTIYTIIDGNIVYKHECYEGHHHHHH”: “soluble”; for “MSGVSLGRGQNANAAYLDNIKELGFKLVRRPTGGGALLHPEDNEITYSVVLSASNTIAKLSVDESAVEIAKGILYTLQILGENVDIRGLGDMKKHDLCYLRSGSSDVIVAGRKISGSAQVRDDKALLQHGTLLLRFEPEI”: “soluble”. For “MKIDILTLFPDMFTGVFGSSILKKAQEKEAVELRVVNFRDYTTSKHNSVDDYPYGGGAGMVLTPQPIFDAVEDLTKETERKPRVVLMCPQGERFTQKKAEELAEEEHLIFVCGHYEGYDERIREHLVTDEISIGDYVLTGGELASMVITDSVVRLLPGVLGNHASQVEDSFSTGLLEHPHYTRPADFRGMKVPDVLMSGNHKNIDEWRHKESLRRTYTRRPDLLEERELSKQEKKWLEQIKEGK” the value was “not soluble”; for “MDEPVDVELVLAVDVSLSMSADELEIQRHGYAAALTHDNVLQAIADGAHGKIAVTYVEWAGTTWQRVIVPWTVIANRADAERVVAQLSAQPPNSARRTSISGALEFGSDLFAESGYEGTKRVIDISGDGPNNQGAPVNLTRDGVVRQGIVINGLPLMTRGGLSGAYDVNDLDRYYSDCVIGGPGAFMIPVNDWTQFPEAIRRKLVLELAGLEHHHHHH”, “soluble”; for “MGHHHHHHSHMSRRKQGKPQHLSKREFSPEPLEAILTDDEPDHGPLGAPEGDHDLLTCGQCQMNFPLGDILIFIEHKRKQCNGSLCLEKAVDKPPSPSPIEMKKASNPVEVGIQVTPEDDDCLSTSSRRICPKQEHIADKLLHWRGLSSPRSAHGALIPTPGMSAEYAPQGICKDEPSSYTCTTCKQPFTSAWFLLQHAQNTHGLRIYLESEHGSPLTPRVLHTPPFGVVPRELKMCGSFRMEAREPLSSEKI”, “not soluble”.

“MEEHPKILSIAGSDSCAGAGMQADLKTAMSLGCHCCTILVVLTAQNTKEVKSIIEVDEKFIVEQLDAIFTDITIEVVKLGVLYSKKIISLIHNYITNINKMREKKLLVVFDPVFVSSSGCMLVENLDYVKYALDLICPLSCIITPNFYECKVILEALNFNIDINNMRTSDLCKLVTEKLNINACLFKSCNIDINTEDENKLYAVDHLCIKNDNDYDTKIKQNISYDVYKLKSKRNPQKDIHGTGCTLSTAISCFLSKKYDIIQACIESKKYIYNCINYAYDLGSKSQGLNHLKAAQHLTDFRELQVIKVD”: the “soluble on expression in E. coli” value is on record as “not soluble”. For “MSLSKIKWWEMSRSFVLDEPETAILQIKPFPLPGLAQVPARIVLSQYRGLFYLNAYQDLDYQQRIYKSAPLPLLSPEDLRNCVSPDNPIQVSDNWPPSNTLDTGITLTPLGFDCSVPPQWQLSLRYLLIDQRDPQHPLLAISHRQDMTQMDFTPLQPISVETGQQWLQALQKFPPWFRAFDSGSGPITLNAYTPPATADSVWKQFRALHEQLRTAKDKGPGIRQVEDFFALHDYRSIAIDHSEYPGLLNDIAYWTSEAGQLNTARNWLLEVLRRDLGRMPTYLNLADLDWALFEQRPLDNIHQGRAIEGYRLYCGMRLQRQMSVPPRVLKRLGLESANPQACQGFWPLVAAADAGDEAEVRRLLASGVSGEVMAEDGRSALLHALDAPHLEIARLLLAHGAHTSGQYQWSTLAMLAMQRDLKDSPDLNQGGRLKFLLQAGVAIDEPNSRGQTPLMKLAEQERNLQGFTWLLQHPQNLDLRTVDDGETALYRAFWSNNYPAMKLLIEAGADLNLSYGRGTCGNEPMGQSLLMLVADKISPDQHSPIVSMQDTLDMFTLLLEKGADPNVGQRCEKKGRPLLLEIIARKKRDDMLKVLQGFAPPAPATAFREGHHHHHH” the value was “not soluble”; for “MNELVDTTEMYLRTIYDLEEEGVTPLRARIAERLDQSGPTVSQTVSRMERDGLLRVAGDRHLELTEKGRALAIAVMRKHRLAERLLVDVIGLPWEEVHAEACRWEHVMSEDVERRLVKVLNNPTTSPFGNPIPGLDELGVGPEPGADDANLVRLTELPAGSPVAVVVRQLTEHVQGDIDLITRLKDAGVVPNARVTVETTPGGGVTIVIPGHENVTLPHEMAHAVKVEKV”, “soluble”. For the sequence “MDAFKRNLEKLAELAIRVGLNLEKGQEVIATAPIEAVDFVRLLAEKAYREGASLFTVIYGDQELARKRLALAPEEGLDKAPAWLYEGMARAFREGAARLAVSGSDPKALEGLPPEKVGRAQKANARAYKPALEAITEFVTNWTIVPFAHPGWARAVFPGLPEEEAVRRLWEAIFQATRADQEDPIAAWEAHNRALHEKVAYLNARRFHALHFKGPGTDLVVGLAEGHLWQGGATATKGGRLCNPNLPTEEVFTAPHRERVEGVVRASRPLALGGTLVEGIFARFERGFAVEVRAEKGEEVLRRLLDTDEGARRLGEVALVPADNPIAKTGLVFFDTLFDENAASHIAFGQAYQENLEGRPSGEAFRKRGGNESLVHVDWMIGSEEMDVDGLYEDGTRTPLMRRGRWVV”, the “soluble on expression in E. coli” value is “soluble”. For “MTDDSAVESKQKKSKIRKGHWIPVVAGFLRKDGKILVGQRPENNSLAGQWEFPGGKIENGETPEEALARELNEELGIEAEVGELKLACTHSYGDVGILILFYEILYWKGEPRAKHHMMLEWIHPEELKHRNIPEANRKILHKIYKALGLEWRK” the value was “soluble”. “VAVVLDRQGKVQTVNGLFETELSYSQSEIAGRSLSEMSPPELSGDTHQKRALAAIRDGKHFSGTLRLVSKTGARVWLRTVVVPFKNETGGIEQITLYSSVLT”: the “soluble on expression in E. coli” value is listed as “not soluble”.

In the case of “GPGSMLEEVLKCYEEMKDPAAHQLAEAALPKLMEALGEESENSVMEVMLRCIGRCVSVHPAIMSPTNTALVCDKVMAALEVVVKRRNECLQKKATENDEDELDALEVEDEEVHLTISSMCDLIGTLLAASKEVFAAPFLEKAFPVLGEWLQASTDDFYMTRAAGILSDFVTHAPQSIVPSLPQICASSLTIASSSSDDGLLQSDFYLMNVIVQLLGSHATTNMGVDGGEYAVHVQQVAEKYFSSNLVNQEEYTHCTCNVISLYVSLLNFYGTTVLQQAATSMLTVVGKALPAKDDEIEARRIHDVVLGWVTNNHPVLQALPGSTAGFLTCVKAASPNCLSEQAKQYLASM”, the “soluble on expression in E. coli” value is on record as “soluble”.

As to “MARIFTYPLARKRIRMHKPDDKQYDATYFTRWYRDAGLADPARLRRKVALAVAQAEYYLERPIRTVLDVGCGEAAWRAPLLALRPKLQYLGFDSSEYAVQRYGRSRQIHPARFGDFAWLRPCAPVDLLICSDVLHYVPTREFNQGLPGLAEMCAGVAFLETFAEEDAFEGDHEGFQARPARWYRRRFASVGFTALGSHCWLSPQLRGETAALEHS”, the “soluble on expression in E. coli” value is recorded as “soluble”.
